We go through 2 molecules from patent US10253344B2, “Recombinant production of steviol glycosides” (Conagen Inc., priority 2013, dated 2019).

Assay type in all cases: biochemical
Data set [1] in a line: in vitro conversion of Reb E to Reb Z by recombinant HV1 polypeptide and AtSUS1. The following applies: Reb E 0.5 mg/ml, HV1 20 μg and AtSUS1 20 μg, 24 hours. The method, then:
An unexpected compound (“Reb Z”) having a HPLC retention time 6.68 minute (see, FIG. 4) that was distinctive from rebaudiosides D and E was produced. This compound represents a novel steviol glycoside, and is termed “rebaudioside Z” (“Reb Z”). To confirm the conversion of Reb E to Reb Z, Reb E substrate (0.5 mg/ml) was incubated with the recombinant HV1 polypeptide (20 μg) and AtSUS1 (20 μg) in a UGT-SUS coupling reaction system ([…]) under conditions similar to those used in the examples above.

Data set [2] is described as follows: in vitro conversion of stevioside by recombinant HV1 polypeptide in UGT-SUS coupling reaction system. The method, then: The purified candidate UGT recombinant polypeptides were assayed for 1,2-19-O-glucose glycosylation activity by using stevioside or Reb A as the substrate (FIGS. 1A-1C). Typically, the recombinant polypeptide (10 μg) was tested in a 200 μl in vitro reaction system. The reaction system contains 50 mM potassium phosphate buffer, pH 7.2, 3 mM MgCl2, 1 mg/ml stevioside or rebaudioside A, 1 mM UDP-glucose. The reaction was performed at 30° C. and terminated by adding 200 μL 1-butanol. The samples were extracted three times with 200 μL 1-butanol. The pooled fraction was dried and dissolved in 70 μL 80% methanol for high-performance liquid chromatography (HPLC) analysis. […]
(§1) The UGT catalyzed glycosylation reaction was be coupled to a UDP-glucose generating reaction catalyzed by a sucrose synthase (such as AtSUS1 of SEQ ID NO:9). […] The purified recombinant AtSUS1 polypeptide was analyzed by SDS-PAGE (molecular weight: 106.3 kD, FIG. 7). […]
(§2) HPLC analysis was then performed using a Dionex UPLC ultimate 3000 system (Sunnyvale, Calif.), including a quaternary pump, a temperature controlled column compartment, an auto sampler and a UV absorbance detector. […]
Accordingly, the catalytic activity of the recombinant HV1 polypeptide for steviol glycoside biosynthesis (e.g., production of rebaudioside D) was further determined in combination with UGT76G1. […] The products were analyzed by HPLC.

The nature of data set [3]: in vitro conversion of rebaudioside A to rebaudioside D by recombinant HV1 polypeptide, with or without AtSUS1. The method, then:
(§3) The purified candidate UGT recombinant polypeptides were assayed for 1,2-19-O-glucose glycosylation activity by using stevioside or Reb A as the substrate (FIGS. 1A-1C). Typically, the recombinant polypeptide (10 μg) was tested in a 200 μl in vitro reaction system. The reaction system contains 50 mM potassium phosphate buffer, pH 7.2, 3 mM MgCl2, 1 mg/ml stevioside or rebaudioside A, 1 mM UDP-glucose. The reaction was performed at 30° C. and terminated by adding 200 μL 1-butanol. The samples were extracted three times with 200 μL 1-butanol. The pooled fraction was dried and dissolved in 70 μL 80% methanol for high-performance liquid chromatography (HPLC) analysis. Stevia extract (Blue California, Calif.), containing 95% stevioside, was used as stevioside substrate. Rebaudioside A (purity 99%) was also supplied by Blue California.
as §1, §2

The nature of data set [4]: enzymatic activity screening of candidate UGT polypeptides for 1,2-19-O-glucose glycosylation activity (in vitro reaction, HPLC). The note with it: stevioside or Reb A as substrate, 30° C. The method, then: as §3, §1, §2
Data set [5] in a line: in vitro conversion of rebaudioside E to rebaudioside D by recombinant UGT76G1, with or without AtSUS1. The following applies: with or without AtSUS1, 6 hours. The method, then: Codon optimized UGT76G1 cDNA was inserted in a bacterial expression vector, and the recombinant UGT76G1 protein was expressed and purified by affinity chromatography. The purified recombinant UGT76G1 polypeptide was analyzed by SDS-PAGE (molecular weight: 65.4 kD, FIG. 9). The rebaudioside E substrate was incubated with the recombinant UGT76G1, with or without AtSUS1, under conditions similar to those used in the Examples above. The products were analyzed by HPLC. […] Addition of recombinant AtSUS in the reaction enhanced the conversion efficiency in UGT-SUS coupling system.

B1: HV1: recombinant UDP-glycosyltransferase polypeptide (SEQ ID NO:6) derived from Hordeum vulgare subsp. vulgare (protein)
chain: MDGNSSSSPLHVVICPWLALGHLLPCLDIAERLASRGHRVSFVSTPRNIARLPPLRPAVAPLVDFVALPLPHVDGLPEGAESTNDVPYDKFELHRKAFDGLAAPFSEFLRAACAEGAGSRPDWLIVDTFHHWAAAAAVENKVPCVMLLLGAATVIAGFARGVSEHAAAAVGKERPAAEAPSFETERRKLMTTQNASGMTVAERYFLTLMRSDLVAIRSCAEWEPESVAALTTLAGKPVVPLGLLPPSPEGGRGVSKEDAAVRWLDAQPAKSVVYVALGSEVPLRAEQVHELALGLELSGARFLWALRKPTDAPDAAVLPPGFEERTRGRGLVVTGWVPQIGVLAHGAVAAFLTHCGWNSTIEGLLFGHPLIMLPISSDQGPNARLMEGRKVGMQVPRDESDGSFRREDVAATVRAVAVEEDGRRVFTANAKKMQEIVADGACHERCIDGFIQQLRSYKA
modifications: Hordeum vulgare
Turning to B1, in data set [1], the “production of Reb Z from Reb E” value was “Reb Z was produced”. In addition, in data set [2] (HV1 10 μg in combination with UGT76G1 10 μg and AtSUS1 10 μg), the “production of rebaudioside D from stevioside” value is “rebaudioside D was produced”. The “conversion of stevioside to rebaudioside E” value in data set [2] (coupled with AtSUS1, in vitro, 20 hours) is reported as “converted stevioside to rebaudioside E”. In addition, the “conversion of rebaudioside A to rebaudioside D” value in data set [3] (HV1 alone without AtSUS1, after 24 hours) is on record as “only partial rebaudioside A was converted”; in data set [3] (UGT-SUS coupling reaction system (with AtSUS1), 6-24 hours) it was “completely converted”. In data set [4], the “1,2-19-O-glucose glycosylation activity” value was “showed a 1,2-19-O-glucose glycosylation activity”.

B2: UGT76G1: recombinant UDP-glycosyltransferase from stevia (SEQ ID NO:11) (protein, listed as Stevia rebaudiana)
chain: MENKTETTVRRRRRIILFPVPFQGHINPILQLANVLYSKGFSITIFHTNFNKPKTSNYPHFTFRFILDNDPQDERISNLPTHGPLAGMRIPIINEHGADELRRELELLMLASEEDEEVSCLITDALWYFAQSVADSLNLRRLVLMTSSLFNFHAHVSLPQFDELGYLDPDDKTRLEEQASGFPMLKVKDIKSAYSNWQILKEILGKMIKQTKASSGVIWNSFKELEESELETVIREIPAPSFLIPLPKHLTASSSSLLDHDRTVFQWLDQQPPSSVLYVSFGSTSEVDEKDFLEIARGLVDSKQSFLWVVRPGFVKGSTWVEPLPDGFLGERGRIVKWVPQQEVLAHGAIGAFWTHSGWNSTLESVCEGVPMIFSDFGLDQPLNARYMSDVLKVGVYLENGWERGEIANAIRRVMVDEEGEYIRQNARVLKQKADVSLMKGGSSYESLESLVSYISSL
With B2, in data set [5], the “1,3-13-O-glucose glycosylation activity (Reb D from Reb E)” value was “showed a 1,3-13-O-glucose glycosylation activity”.
